The source of these data is paper PMC2834481.

In this assay the target is squid Munc18-1 (squid). The experiment in a line: ITC. (In general: In ITC the heat of successive injections is recorded.)

Turning to “synaptobrevin(77-96) peptide (from UniProt P63045 77-96)”, the Kd – broadly, the concentration at which binding is half-saturated – is 13.5 µM.

“synaptobrevin(49-96) (from UniProt P63045 49-96) (domain or fragment)” gave a dissociation constant Kd of 13.3 µM.
